PMC8745191
Substitutions are numbered along the chain they refer to.

Legend:
Details in all cases: LightShift Chemiluminescent EMSA kit, manufacturer's protocol; binding buffer, pH and temperature not stated; protein eluted in 20 mM Tris-HCl pH 8.0, 500 mM …
[1] = biological target: T1, His-STOP1 (Arabidopsis thaliana) (UniProt Q9C8N5); experiment: competition
T1 sequence: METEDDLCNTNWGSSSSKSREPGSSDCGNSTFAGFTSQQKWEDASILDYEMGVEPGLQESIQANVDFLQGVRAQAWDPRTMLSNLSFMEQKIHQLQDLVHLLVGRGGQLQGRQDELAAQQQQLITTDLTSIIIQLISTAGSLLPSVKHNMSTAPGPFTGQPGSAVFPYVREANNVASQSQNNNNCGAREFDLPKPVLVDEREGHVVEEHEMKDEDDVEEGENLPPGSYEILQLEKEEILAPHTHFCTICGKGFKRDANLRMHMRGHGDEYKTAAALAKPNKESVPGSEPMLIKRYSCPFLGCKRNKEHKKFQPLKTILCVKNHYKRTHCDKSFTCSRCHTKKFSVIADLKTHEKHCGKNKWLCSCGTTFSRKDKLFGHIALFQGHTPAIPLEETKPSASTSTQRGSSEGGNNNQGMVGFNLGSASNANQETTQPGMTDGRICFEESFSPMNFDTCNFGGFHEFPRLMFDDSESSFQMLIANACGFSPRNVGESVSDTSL

[2] = biological target: T1, His-STOP1 (Arabidopsis thaliana); experiment: EMSA
[3] = biological target: T2, His-STOP1 H266Y H266Y (Arabidopsis thaliana (stop1-1 allele)) (UniProt Q9C8N5); experiment: EMSA
T2 sequence: T1 sequence with H266Y

Row | Sequence | binding [1] | binding [2] | binding [3]
1 | TTGCATTTAAATTATCAAAGACTAAGATAAGCCTAGAATAATTTAAAATGTAAACTATAGTATACGTCAGAACCTACAGATACAACCTTCCTCGTATAATCCCTAAACAGAATTTTAATT (double strand) [P3 unlabeled competitor (cold probe)] | binds |  | 
2 | TTGCATTTAAATTATCAAAGACTAAGATAAGCCTAGAATAATTTAAAATGTAAACTATAGTATACGTCAGAACCTACAGATACAACCTTCCTCGTATAATCCCTAAACAGAATTTTAATT (double strand) [P3 (F2-2) LKS1 promoter probe] |  | binds | no binding
